Sequences and labels used below:
B1: Torsin-1A (Homo sapiens), O14656 (parent)
chain: MKLGRAVLGLLLLAPSVVQAVEPISLGLALAGVLTGYIYPRLYCLFAECCGQKRSLSREALQKDLDDNLFGQHLAKKIILNAVFGFINNPKPKKPLTLSLHGWTGTGKNFVSKIIAENIYEGGLNSDYVHLFVATLHFPHASNITLYKDQLQLWIRGNVSACARSIFIFDEMDKMHAGLIDAIKPFLDYYDLVDGVSYQKAMFIFLSNAGAERITDVALDFWRSGKQREDIKLKDIEHALSVSVFNNKNSGFWHSSLIDRNLIDYFVPFLPLEYKHLKMCIRVEMQSRGYEIDEDIVSRVAEEMTFFPKEERVFSDKGCKTVFTKLDYYYDD

One test covers variants of B1. As to conditions: with toip2_human TOR1AIP2, Q8NFQ8.
On to E171Q, for which the “effect of a mutation on the interaction” value is on record as “with no effect”.

In the next test the parent is B1. The following applies: with toip1_human TOR1AIP1, Q5JTV8.
Chain of toip1_human TOR1AIP1, Q5JTV8 (Q5JTV8 whole entry): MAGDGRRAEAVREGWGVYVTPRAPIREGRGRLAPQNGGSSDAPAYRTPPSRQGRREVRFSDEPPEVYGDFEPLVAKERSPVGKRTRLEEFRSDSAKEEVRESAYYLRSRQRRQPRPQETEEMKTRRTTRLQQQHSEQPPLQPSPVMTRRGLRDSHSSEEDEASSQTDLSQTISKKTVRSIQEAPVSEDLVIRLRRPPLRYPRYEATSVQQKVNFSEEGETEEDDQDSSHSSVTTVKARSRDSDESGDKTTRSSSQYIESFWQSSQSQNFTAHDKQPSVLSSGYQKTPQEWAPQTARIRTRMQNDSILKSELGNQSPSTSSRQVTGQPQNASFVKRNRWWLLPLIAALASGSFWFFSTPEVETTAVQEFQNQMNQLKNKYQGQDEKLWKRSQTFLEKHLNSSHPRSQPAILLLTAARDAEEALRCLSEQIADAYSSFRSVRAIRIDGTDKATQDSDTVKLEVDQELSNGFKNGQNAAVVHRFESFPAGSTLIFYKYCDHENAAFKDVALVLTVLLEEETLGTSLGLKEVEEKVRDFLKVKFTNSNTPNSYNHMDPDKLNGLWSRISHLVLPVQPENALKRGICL
In the case of E171Q, the “effect of a mutation on the interaction” value is reported as “with no effect”.
